For this assay, the target named is afTMEM16 scramblase from Aspergillus fumigatus (Aspergillus fumigatus). The experiment in a line: cryo-EM structure.

In paper doi:10.1101/420174 one finds stoichiometry N data, which are given here for one substance.

For “afTMEM16 scramblase from Aspergillus fumigatus (natural protein)”, the stoichiometry N turned out to be 2.

As usually defined, the stoichiometry N is a count of units in the complex or per binding partner.
